Test results as given in publication PMC13344369.
Where two headings read alike, the source gives them in different places.

What was measured:
IFN-γ (interferon gamma) [1] = target: T1, IFN-γ (interferon gamma) (UniProt P01579 24-161); test: graphene-Nafion FET biosensor
IFN-γ (interferon gamma) [2] = target: T1, IFN-γ (interferon gamma); test: graphene-Nafion FET biosensor; remark: listed apart in the source

T1 sequence (P01579 24-161): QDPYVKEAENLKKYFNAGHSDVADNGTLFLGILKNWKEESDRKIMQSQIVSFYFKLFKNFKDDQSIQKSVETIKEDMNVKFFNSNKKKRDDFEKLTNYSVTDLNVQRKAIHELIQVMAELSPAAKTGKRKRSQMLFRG

Question: GGGGTTGTTTGTGTTGGGTGTTGTGT (ssDNA, 5'-NH2) [IFN-γ-specific aptamer] was tested. Which Kd (IFN-γ (interferon gamma) [1]) did it give?
Answer: 4.39 nM

Question: What about the Kd (IFN-γ (interferon gamma) [2]) of the same binder?
Answer: 4.21 nM
